Results reported in patent publication US20200040084A1.

Legend:
[1] = biological target: FcγRIIa (secondary ADCP assay, M2c macrophage effector cells) (UniProt P12318); assay: cell-based or functional assay
[2] = biological target: FcγRIIIa (secondary ADCC assays, NK effector cells) (UniProt P08637); assay: cell-based or functional assay
[3] = biological target: FcγRIIa (UniProt P12318); assay: SPR, FcγRIIa binding
[4] = biological target: human FcγRIIa-H variant (Histidine at amino acid 131) on Jurkat effector cells (human) (UniProt P12318); assay: cell-based or functional assay
[5] = biological target: FcγRIIIa on Jurkat effector cells (UniProt P08637); assay: cell-based or functional assay

fucosylated anti-PD-L1 IgG1 antibody (avelumab), sequence (HC): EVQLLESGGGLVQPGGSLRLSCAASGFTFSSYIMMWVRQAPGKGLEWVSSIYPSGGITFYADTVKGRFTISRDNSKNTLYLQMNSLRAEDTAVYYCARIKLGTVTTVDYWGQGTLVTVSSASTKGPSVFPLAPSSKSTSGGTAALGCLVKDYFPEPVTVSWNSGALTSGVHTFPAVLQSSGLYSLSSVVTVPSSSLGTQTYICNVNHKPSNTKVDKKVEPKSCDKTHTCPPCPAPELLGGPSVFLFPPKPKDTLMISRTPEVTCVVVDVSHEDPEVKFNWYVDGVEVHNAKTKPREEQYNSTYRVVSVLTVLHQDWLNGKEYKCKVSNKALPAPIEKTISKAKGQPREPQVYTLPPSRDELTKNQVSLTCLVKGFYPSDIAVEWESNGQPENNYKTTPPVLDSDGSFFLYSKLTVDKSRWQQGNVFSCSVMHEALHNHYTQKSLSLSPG
fucosylated anti-PD-L1 IgG1 antibody (avelumab), sequence (LC): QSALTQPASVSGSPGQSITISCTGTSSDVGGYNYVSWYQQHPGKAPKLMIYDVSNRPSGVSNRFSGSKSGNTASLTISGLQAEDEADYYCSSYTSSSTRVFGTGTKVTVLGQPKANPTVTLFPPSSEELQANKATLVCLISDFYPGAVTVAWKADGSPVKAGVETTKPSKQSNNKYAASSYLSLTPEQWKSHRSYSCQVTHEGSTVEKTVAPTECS
afucosylated anti-PD-L1 IgG1 antibody (avelumab), sequence (HC): as the sequence (HC) above
afucosylated anti-PD-L1 IgG1 antibody (avelumab), sequence (LC): as the sequence (LC) above
FcγRIIa, sequence (P12318 34-217 limits assumed): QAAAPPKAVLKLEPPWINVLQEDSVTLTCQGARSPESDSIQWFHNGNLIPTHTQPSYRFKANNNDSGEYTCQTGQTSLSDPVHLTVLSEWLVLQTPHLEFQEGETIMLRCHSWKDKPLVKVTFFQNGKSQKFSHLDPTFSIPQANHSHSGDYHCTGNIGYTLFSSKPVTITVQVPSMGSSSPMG
human FcγRIIa-H variant (Histidine at amino acid 131) on Jurkat effector cells (human), sequence (P12318 34-317, change not shown): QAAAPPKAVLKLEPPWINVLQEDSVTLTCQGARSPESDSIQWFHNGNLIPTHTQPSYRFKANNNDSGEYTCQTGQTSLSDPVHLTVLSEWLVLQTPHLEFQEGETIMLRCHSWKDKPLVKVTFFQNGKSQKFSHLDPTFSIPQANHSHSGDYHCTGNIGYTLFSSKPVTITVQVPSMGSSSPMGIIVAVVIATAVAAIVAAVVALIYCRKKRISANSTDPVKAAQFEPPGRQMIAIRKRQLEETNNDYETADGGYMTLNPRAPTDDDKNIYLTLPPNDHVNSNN

Substance: afucosylated anti-CD20 IgG1 antibody (obinutuzumab)
- EC50 mean, ADCP in KILR Raji cells (M2c macrophages) [1]: 0.37 nM

Substance: afucosylated anti-PD-L1 IgG1 antibody (avelumab)
- EC50 mean, ADCC in KILR-A549 cells (NK cells) [2]: 0.0054 nM

Substance: afucosylated version of Ipilimumab (antibody)
- fold enhancement of binding by afucosylation [3]: 10 fold

Substance: fucosylated anti-CD20 IgG1 antibody (obinutuzumab)
- EC50 mean, FcγRIIa signaling in ADCP reporter assay (Raji targets) [4]: 7.1 nM
- EC50 mean, FcγRIIIa signaling in ADCC reporter assay (Raji targets) [5]: 7.1 nM
- EC50 mean, ADCC in KILR Raji cells (NK cells) [2]: 0.033 nM
- EC50 mean, ADCP in KILR Raji cells (M2c macrophages) [1]: 0.82 nM

Substance: fucosylated anti-PD-L1 IgG1 antibody (avelumab)
- EC50 mean, FcγRIIIa signaling in ADCC reporter assay (HEK-PD-L1 targets) [5]: 0.049 nM
